Substrate in this data set: CC(=O)NC1C(Oc2ccc(NC(=O)CCN(CCCCNC(=O)c3ccccc3)C(=O)OC(C)(C)C)cc2)OC(COS(=O)(=O)O)C(O)C1O
The experiment in a line: Enzyme kinetics of HexA with the HexA substrate, endogenous enzyme from healthy adult dried blood spots, LC-MS/MS detection. The class given is biochemical. Particulars: other: endogenous enzyme from healthy adult dried blood spots. The protocol: 3.2 mm punches were taken from dried blood samples. The punches were added into a well of a multiwell plate and in particular, a 1.0 mL deep-well 96-well plate. Following, 30 μL of the duplex assay cocktail described above was added to each well. The plate was sealed with a silicone sealing mat and shaken at 250 rpm for 4 hours at 37° C. in an orbital shaker incubator. After incubation, the enzymatic reaction was quenched by adding 100 μL of methanol: ethyl acetate (1:1) and mixed by pipetting up and down ˜10 times. Analytes were extracted by adding sodium chloride solution (0.5 M, 200 μL) and ethyl acetate (400 μL) to each well and mixed by pipetting up and down ˜10 times. […]
Analytes were detected via a WATERS™ Xevo TQ triple-quadrupole mass spectrometer. […] The following MRM traces were monitored for quantitation: HexA enzymatic reaction product (456.5>356.1), HexA/B enzymatic reaction product (461.5>361.2), and internal standard (465.5>357.1). […]
Enzyme kinetics of HexA and HexA/B were measured in relationship to the HexA substrate and HexA/B substrate, respectively, using endogenous enzymes from healthy adult dried blood spots. […]
The reaction rate for each substrate at different substrate concentrations was measured and the relationship found to be hyperbolic.

B1: HexA (Homo sapiens) (protein)
chain: TLEKNVLVVSVVTPGCNQLPTLESVENYTLTINDDQCLLLSETVWGALRGLETFSQLVWKSAEGTFFINKTEIEDFPRFPHRGLLLDTSRHYLPLSSILDTLDVMAYNKLNVFHWHLVDDPSFPYESFTFPELMRKGSYNPVTHIYTAQDVKEVIEYARLRGIRVLAEFDTPGHTLSWGPGIPGLLTPCYSGSEPSGTFGPVNPSLNNTYEFMSTFFLEVSSVFPDFYLHLGGDEVDFTCWKSNPEIQDFMRKKGFGEDFKQLESFYIQTLLDIVSSYGKGYVVWQEVFDNKVKIQPDTIIQVWREDIPVNYMKELELVTKAGFRALLSAPWYLNRISYGPDWKDFYIVEPLAFEGTPEQKALVIGGEACMWGEYVDNTNLVPRLWPRAGAVAERLWSNKLTSDLTFAYERLSHFRCELLRRGVQAQPLNVGFCEQEFEQT
notes: using endogenous enzymes from healthy adult dried blood spots; from tissue; host or cells: dried blood spots from healthy adults/individuals (3.2 mm punches)
B1: the Km is recorded as 4,051 μM.
